Results from US20250295803A1, “5T4 ANTIBODY-DRUG CONJUGATES AND USES THEREOF” (EXELIXIS, INC., priority 2022, published 2025).

T1: rat 5T4 on transfected HEK293 and CHO cells (rat, UniProt Q5PQV5 32-426)
T1 construct: whole, on cells
T1 sequence (looked up): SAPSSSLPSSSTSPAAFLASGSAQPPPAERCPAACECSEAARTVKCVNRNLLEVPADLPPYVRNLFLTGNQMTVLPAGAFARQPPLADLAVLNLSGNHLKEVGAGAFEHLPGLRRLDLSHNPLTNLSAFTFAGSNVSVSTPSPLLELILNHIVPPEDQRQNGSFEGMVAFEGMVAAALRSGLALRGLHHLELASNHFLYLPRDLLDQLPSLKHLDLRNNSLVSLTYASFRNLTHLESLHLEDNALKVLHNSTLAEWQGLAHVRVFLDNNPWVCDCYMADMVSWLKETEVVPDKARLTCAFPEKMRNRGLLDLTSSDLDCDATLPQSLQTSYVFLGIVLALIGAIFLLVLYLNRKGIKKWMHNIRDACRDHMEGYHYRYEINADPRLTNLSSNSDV

T2: unconjugated human TPBG/5T4 protein with a c-terminal polyhistidine and Avi tag (AcroBiosystems Cat. No. … (human, UniProt Q13641 32-355))
T2 construct: Bought protein; also called Acro TPGH52E5; Acro Catalog No. TPGH52E; not shown: C-terminal polyhistidine and Avi tag
T2 sequence: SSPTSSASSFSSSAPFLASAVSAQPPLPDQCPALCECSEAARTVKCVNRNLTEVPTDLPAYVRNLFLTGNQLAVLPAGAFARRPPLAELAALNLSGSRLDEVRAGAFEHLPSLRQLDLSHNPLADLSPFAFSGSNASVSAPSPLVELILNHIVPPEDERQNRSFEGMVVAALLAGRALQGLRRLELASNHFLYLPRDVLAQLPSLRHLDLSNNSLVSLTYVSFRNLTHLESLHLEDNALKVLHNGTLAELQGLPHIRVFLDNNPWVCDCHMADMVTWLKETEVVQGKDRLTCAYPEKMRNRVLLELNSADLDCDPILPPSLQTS

T3: HEK293 and CHO cells transfected to express cyno 5T4 (Macaca fascicularis, UniProt Q4R8Y9)
T3 construct: expressed in transfected cells; host or cells: HEK293 and CHO
T3 sequence (Q4R8Y9 35-420): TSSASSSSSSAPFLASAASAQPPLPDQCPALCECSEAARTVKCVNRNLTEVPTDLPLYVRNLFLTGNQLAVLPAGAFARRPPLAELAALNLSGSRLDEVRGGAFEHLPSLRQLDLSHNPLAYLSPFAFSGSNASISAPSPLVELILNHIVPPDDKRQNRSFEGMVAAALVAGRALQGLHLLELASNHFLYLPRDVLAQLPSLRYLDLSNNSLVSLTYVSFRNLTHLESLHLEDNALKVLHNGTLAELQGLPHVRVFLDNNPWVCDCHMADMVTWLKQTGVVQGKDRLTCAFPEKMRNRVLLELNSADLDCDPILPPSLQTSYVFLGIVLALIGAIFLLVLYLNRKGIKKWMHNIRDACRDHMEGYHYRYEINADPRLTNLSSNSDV

T4: HEK293 and CHO cells transfected to express human 5T4 (Homo sapiens, UniProt Q13641)
T4 construct: expressed in transfected cells; host or cells: HEK293 and CHO
T4 sequence (Q13641 32-420): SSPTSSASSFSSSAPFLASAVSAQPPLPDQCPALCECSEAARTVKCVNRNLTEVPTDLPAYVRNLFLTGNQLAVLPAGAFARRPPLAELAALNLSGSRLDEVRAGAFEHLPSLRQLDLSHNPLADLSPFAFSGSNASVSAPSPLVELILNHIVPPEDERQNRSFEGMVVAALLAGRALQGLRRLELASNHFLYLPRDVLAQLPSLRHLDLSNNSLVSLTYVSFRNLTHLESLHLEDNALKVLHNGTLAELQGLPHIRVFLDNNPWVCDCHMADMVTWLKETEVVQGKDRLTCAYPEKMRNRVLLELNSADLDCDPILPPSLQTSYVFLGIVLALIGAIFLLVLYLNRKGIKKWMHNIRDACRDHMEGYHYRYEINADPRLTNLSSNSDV


Tests used:
[1] = target: T1, rat 5T4 on transfected HEK293 and CHO …; assay: cell binding on transfected HEK293 and CHO cells
[2] = target: T2, unconjugated human TPBG/5T4 protein …; assay: ELISA on coated human 5T4 His-Avi (Acro TPG-H52E5); antibody condition: pH 8.5 Day 4
Method: (§1) A. Normal Binding Unconjugated antibodies were tested for their ability to bind to human 5T4 (hu5T4) using ELISA. On Day 1, unconjugated human TPBG/5T4 protein with a c-terminal polyhistidine and Avi (AVITAG™) tag (AcroBiosystems (Newark, DE, USA), Cat. No. TPG-H52E5) was diluted 2 μg/mL in PBS, mixed thoroughly, plated 100 μL per well in a 96-well plate (Nunc MAXISORP®) and incubated overnight at 4° C.

[3] = target: T2, unconjugated human TPBG/5T4 protein …; assay: ELISA on coated human 5T4 His-Avi (Acro TPG-H52E5); antibody condition: PBS + H2O2 time 0
Method: as §1
3. Oxidative Stress. Several unconjugated antibodies were tested for their ability to bind to 5T4 using ELISA in an oxidative environment. Solutions of 1 mg/mL to 10 mg/mL of antibody in 20 mM citrate/50 mM NaCl at a pH of 5.5 were prepared and stored at 37° C. for 1 to 2 weeks.

[4] = target: T3, HEK293 and CHO cells transfected to express cyno 5T4; assay: Cell binding to transfected HEK293 and CHO cells, cyno 5T4; type: cell-based
Method: (§2) Unconjugated antibodies were tested for their ability to bind to HEK293 and CHO cells transfected to express human, cyno, rat, or mouse 5T4.

[5] = Size exclusion chromatography (SEC) developability; type: physicochemical; details: 1 mg/mL in Dulbecco's PBS pH 7.4
Method: Antibodies that were selected for binding to 5T4, such as those described in Examples 2 and 3, were tested by various methods to assess developability. For example, various chromatographic methods, including size exclusion chromatography (SEC), hydrophobic interaction chromatography (HIC), and standup monolayer adsorption chromatography (SMAC) were employed to assess factors, such as monomer percentage, solubility, and antibody aggregation or precipitation.
Size exclusion chromatography (SEC) analysis was performed using a 7.8 mm ID×30 cm TSKgel G3000SWXL column (Tosoh Bioscience LLC, PN 08541) with a 6 mm×4 cm guard column (PN 08543) on an Agilent 1100 HPLC. Antibodies were normalized to 1 mg/mL concentration in Dulbecco's PBS (pH 7.4, without Ca^2+/Mg^2+) and clarified via centrifugation to pellet particulates while still retaining soluble aggregates. The mobile phase buffer was Dulbecco's PBS (pH 7.4, without Ca^2+/Mg^2+) at 2× concentration (diluted from 10× stock concentration. For each sample, 10 μL was loaded and isocratically eluted at 1.0 mL/minute over 20 minutes at ambient temperature. Absorbance was monitored at 280 nm. Chromatographic peaks were integrated to determine percentage of homogeneity and retention time. The column stationary phase along with choice of mobile phase supports hydrophobic and electrostatic interactions in addition to molecular sizing (secondary interactions much milder compared to SMAC). Data analysis was performed using Agilent ChemStation B.04.03 SP1.

[6] = target: T4, HEK293 and CHO cells transfected to express human 5T4; assay: Cell binding to transfected HEK293 and CHO cells, human 5T4; type: cell-based
Method: as §2

Row | Molecule | binding result [1] | EC50 [2] [pM] | EC50 [3] [pM] | reactivity to cells transfected to express cyno 5T4 [4] | developability based on SEC analysis [5] | reactivity to cells transfected to express human 5T4 [6]
1 | mAbA17: 5T4 antibody comprising VH of SEQ ID NO:62 and VL of SEQ ID NO:63 (antibody, V domains shown, Antibody mAbA17 VH Sequence; Antibody mAbA17 VL Sequence) VH: EVQLVESGGGLVQPGGSLRLSCAASGFTFSRYWIHWVRQAPGKGLEWVAAIFPYSGSTLYADSVKGRFTISADTSKNTAYLQMNSLRAEDTAVYYCARSPSRSILPSGLDYWGQGTLVTVSS VL: DIQMTQSPSSLSASVGDRVTITCRASQSVSSAVAWYQQKPGKAPKLLIYSASSLYSGVPSRFSGSRSGTDFTLTISSLQPEDFATYYCQQGDGSPYTFGQGTKVEIK |  |  |  | reactive | strong developability | reactive
2 | mAbA4: 5T4 antibody comprising VH of SEQ ID NO:25 and VL of SEQ ID NO:26 (antibody, V domains shown, Antibody mAbA4 VH Sequence; Antibody mAbA4 VL Sequence) VH: EVQLVESGGGLVQPGGSLRLSCAASGFTFSRYYIHWVRQAPGKGLEWVAFISPGGSYTYYADSVKGRFTISADTSKNTAYLQMNSLRAEDTAVYYCAREYYSMGVLDYWGQGTLVTVSS VL: DIQMTQSPSSLSASVGDRVTITCRASQSVSSAVAWYQQKPGKAPKLLIYSASSLYSGVPSRFSGSRSGTDFTLTISSLQPEDFATYYCQQAYESPYTFGQGTKVEIK |  |  |  | reactive | strong developability | reactive
3 | mAbA15: 5T4 antibody comprising VH of SEQ ID NO:44 and VL of SEQ ID NO:45 (antibody, V domains shown, Antibody mAbA15 VH Sequence; Antibody mAbA15 VL Sequence) VH: EVQLVESGGGLVQPGGSLRLSCAASGFTFSSYYIHWVRQAPGKGLEWVAYITSTGSYTEYADSVKGRFTISADTSKNTAYLQMNSLRAEDTAVYYCARYDRSTRYSGLDYWGQGTLVTVSS VL: DIQMTQSPSSLSASVGDRVTITCRASQSVSSAVAWYQQKPGKAPKLLIYSASSLYSGVPSRFSGSRSGTDFTLTISSLQPEDFATYYCQQAYATPVTFGQGTKVEIK |  |  |  | reactive | strong developability | reactive

Further lines, with some results ahead:

Row | binding result [1] | EC50 [2] [pM] | EC50 [3] [pM] | Molecule | reactivity to cells transfected to express cyno 5T4 [4] | developability based on SEC analysis [5] | reactivity to cells transfected to express human 5T4 [6]
4 | no binding | 150 | 188 | mAbA17 (antibody, V domains shown, also called Antibody mAbA17) VH: EVQLVESGGGLVQPGGSLRLSCAASGFTFSRYWIHWVRQAPGKGLEWVAAIFPYSGSTLYADSVKGRFTISADTSKNTAYLQMNSLRAEDTAVYYCARSPSRSILPSGLDYWGQGTLVTVSS VL: DIQMTQSPSSLSASVGDRVTITCRASQSVSSAVAWYQQKPGKAPKLLIYSASSLYSGVPSRFSGSRSGTDFTLTISSLQPEDFATYYCQQGDGSPYTFGQGTKVEIKR |  |  | 
5 | no binding | 114 | 225 | mAbA4 (antibody, V domains shown, also called Antibody mAbA4) VH: EVQLVESGGGLVQPGGSLRLSCAASGFTFSRYYIHWVRQAPGKGLEWVAFISPGGSYTYYADSVKGRFTISADTSKNTAYLQMNSLRAEDTAVYYCAREYYSMGVLDYWGQGTLVTVSS VL: DIQMTQSPSSLSASVGDRVTITCRASQSVSSAVAWYQQKPGKAPKLLIYSASSLYSGVPSRFSGSRSGTDFTLTISSLQPEDFATYYCQQAYESPYTFGQGTKVEIKR |  |  | 
6 | no binding | 133 | 191 | mAbA15 (antibody, V domains shown, also called Antibody mAbA15) VH: EVQLVESGGGLVQPGGSLRLSCAASGFTFSSYYIHWVRQAPGKGLEWVAYITSTGSYTEYADSVKGRFTISADTSKNTAYLQMNSLRAEDTAVYYCARYDRSTRYSGLDYWGQGTLVTVSS VL: DIQMTQSPSSLSASVGDRVTITCRASQSVSSAVAWYQQKPGKAPKLLIYSASSLYSGVPSRFSGSRSGTDFTLTISSLQPEDFATYYCQQAYATPVTFGQGTKVEIKR |  |  | 
